The target of experiment [1] is human Claudin18.2 expressed on cells (human) (UniProt P56856). As to the kind of experiment: flow cytometry on SNU1-hClaudin18.2 cells, APC anti-human IgG Fc secondary antibody. Background: A flow cytometer gives signals particle by particle.
Experiment [2] shares this target. As to the kind of experiment: flow cytometry on SNU1-hClaudin18.2 cells.
Experiment [3] concerns the target T1, Human Claudin18.2 His tag protein (human, UniProt P56856-2 1-261, limits assumed).
T1 construct: also called Claudin18.2 protein; not shown: His tag
T1 sequence (looked up): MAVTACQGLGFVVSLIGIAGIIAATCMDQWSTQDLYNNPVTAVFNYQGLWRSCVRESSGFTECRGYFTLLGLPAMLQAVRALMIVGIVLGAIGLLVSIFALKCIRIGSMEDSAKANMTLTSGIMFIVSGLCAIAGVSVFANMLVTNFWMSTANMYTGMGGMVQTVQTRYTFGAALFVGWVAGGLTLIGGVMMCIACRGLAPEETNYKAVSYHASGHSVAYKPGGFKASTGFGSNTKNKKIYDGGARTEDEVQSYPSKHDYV
Kind of experiment: BLI (Octet), antibody on Protein A biosensor. As to the method: The affinity of Claudin18.2 nanobodies was determined. The affinity of the antibodies was measured using the Fortebio Octet® detection instrument based on the biolayer interferometry (BLI) technique.
After the 5 antibodies were immobilized on the Protein A biosensor, the antibodies could bind to the Human Claudin18.2 His tag protein. The measured affinity was calculated using Data Analysis 11 software of the Octet RED96e (ForteBio). The affinities (KD values) of antibody NCLD04 and antibody NCLD31 for the Claudin18.2 protein are both favorable.

The target of the next experiment is T2, Claudin18.2 protein (UniProt P56856-2 1-261, limits assumed).
T2 sequence (looked up): T1 sequence (looked up)
As to the kind of experiment: flow cytometry of STAR-T cells stained with Claudin18.2 protein. An excerpt: The above-mentioned vectors were used to package lentiviruses and infect T cells. After one week of culture, the expression levels of STAR and Claudin18.2 on the cells were detected by flow cytometry.
Specifically, the expression of the Claudin18.2 antibody in the STAR structure on the cell membrane was detected by staining with the Claudin18.2 Protein antibody, and the positive rate of STAR vector infection was detected by mTCRβ. […] The protein binding of NCR8020-NCLD04α-STAR and NCLD04 STAR is relatively good, exceeding 55%. Both MND-NCLD04β-NCR802a STAR-mL15 and MND-NCR8020-NCLD04α STAR-mL15 can be successfully expressed on the membrane.

For the next experiment, the target named is T3, MSLN (UniProt Q13421 296-580, limits assumed).
T3 construct: also called mesothelin
As to the kind of experiment: BLI affinity detection.

A value given as a limit tells only on which side of the number the result lay.

T3 sequence (Q13421 other isoform, or with tags, fused parts or gaps limits assumed): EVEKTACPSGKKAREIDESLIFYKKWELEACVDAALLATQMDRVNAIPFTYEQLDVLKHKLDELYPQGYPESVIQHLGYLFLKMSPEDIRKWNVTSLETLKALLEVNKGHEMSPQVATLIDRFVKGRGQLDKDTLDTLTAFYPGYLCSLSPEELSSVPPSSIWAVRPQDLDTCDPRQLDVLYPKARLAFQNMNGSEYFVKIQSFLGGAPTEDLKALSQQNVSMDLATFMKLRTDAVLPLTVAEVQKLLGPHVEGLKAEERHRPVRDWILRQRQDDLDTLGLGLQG

B1: NCLD14 (VHH-IgG1 Fc) (Fc fusion)
chain: DVQLQESGGGLVQPGGSLRLSCATSGFTFSTYNMGWFRQAPGKEREFVGSIKWSASTTYYADSVKGRFTISRDNAKNTVYLQMNSLKPEDTAIYYCAGSPHIALGTRTEMYPYWGQGTQVTVSS
notes: Tested as VHH-IgG1 Fc; also called antibody NCLD14; not shown: IgG1 Fc fused to the VHH
What is called EC50 (read off the curve) is the concentration that produces a half-maximal response. The EC50 is the midpoint of the concentration-response curve. A high value points to lower potency in that assay. The term Kd denotes the concentration at which binding is half-saturated. Low values mean higher affinity, high ones lower affinity. One may read the koff as a measure of how fast the partners let go of each other. One may read the kon as a measure of how fast the partners come together. B1 registered an EC50 (read off the curve) in experiment [1] of 3 nM. In addition, in experiment [2], the 50% effective concentration (EC50) was found to be 21 nM. In experiment [3], binding was put at a Kd of 72.6 nM, the koff was 0.00456 s⁻¹ and the on-rate constant (kon) worked out at 62900 M⁻¹ s⁻¹.

B2: NCLD04-STAR (NCLD04β-STAR-a(G4S)3OX40(gh)) (other)
chain 1: DVQLQESGGGLVQPGGSLRLSCTASGLTFNDYAVSWLRQAPGKEREFVATIRGSGGVTNYGASAEGRFIISRENAENTVYLQMNSLKSEDTAVYYCNARPLFGWSEEYWGQGTQVTVSSEDLRNVTPPKVSLFEPSKAEIANKQKATLVCLARGFFPDHVELSWWVNGKEVHSGVCTDPQAYKESNYSYCLSSRLRVSATFWHNPRNHFRCQVQFHGLSEEDKWPEGSPKPVTQNISAEAWGRADCGITSASYQQGVLSATILYEILLGKATLYAVLVSTLVVMAMVKRKNS
chain 2: DIQNPEPAVYQLKDPRSQDSTLCLFTDFDSQINVPKTMESGTFITDKCVLDMKAMDSKSNGAIAWSNQTSFTCQDIFKETNATYPSSDVPCDATLTEKSFETDMNLNFQNLLVIVLRILLLKVAGFNLLMTLRLWGGGGSGGGGSGGGGSRRDQRLPPDAHKPPGGGSFRTPIQEEQADAHSTLAKI
notes: Synthetic T-cell receptor and antigen receptor on T cells; NCLD04 VHH on the beta constant region; also called NCLD04-STAR-T
On to B2, for which the “protein binding (percent of cells)” value in the experiment with Claudin18.2 protein was above 55%.

B3: NM5 (VHH)
VHH: DVQLQESGGGLVQAGGSLRLSCVGAGVSFSPYGIGWWRQAQGNQREWVASIYRSGSTNYEDFAKDRFTISRDNTKNTAYLQMNSLKPEDTAVYYCQILGTSYRGQGTQVTVSS
notes: also called nanobody NM5; NM5 antibody
For the molecule B3, the Kd in the experiment with MSLN is 11.4 nM.
